Assay results reported in patent publication US20220089698A1 (published 2022).

B1: 1.31.1-1 (antibody, human IgG1, kappa)
heavy: QVQLVQSGAEVTKPGASVRVSCEASGYNIRDYFIHWWRQAPGQGLQWVGWINPKTGQPNNPRQFQGRVSLTRHASWDFDTFSFYMDLKALRSDDTATYFCARQRSDYWDFDVWGSGTQVTVSSASTKGPSVFPLAPSSKSTSGGTAALGCLVKDYFPEPVTVSWNSGALTSGVHTFPAVLQSSGLYSLSSVVTVPSSSLGTQTYICNVNHKPSNTKVDKKVEPKSCDKTHTCPPCPAPELLAGPDVFLFPPKPKDTLMISRTPEVTCVVVDVSHEDPEVKFNWYVDGVEVHNAKTKPREEQYNSTYRVVSVLTVLHQDWLNGKEYKCKVSNKALPLPEEKTISKAKGQPREPQVYTLPPSREEMTKNQVSLTCLVKGFYPSDIAVEWESNGQPENNYKTTPPVLDSDGSFFLYSKLTVDKSRWQQGNVFSCSVLHEALHSHYTQKSLSLSPGK
light: DIQMTQSPSSLSASVGDTVTITCQANGYLNWYQQRRGKAPKLLIYDGSKLERGVPSRFSGRRWGQEYNLTINNLQPEDIATYFCQVYEFVVPGTRLDLKRTVAAPSVFIFPPSDEQLKSGTASVVCLLNNFYPREAKVQWKVDNALQSGNSQESVTEQDSKDSTYSLSSTLTLSKADYEKHKVYACEVTHQGLSSPVTKSFNRGEC
B2: 1.33.1-1 (antibody, human IgG1, kappa)
heavy: QVQLVQSGAEVKKPGASVRVSCKASGYNIRDYFIHWWRQAPGQGLQWVGWINPKTGQPNNPRQFQGRVTLTRHASWDFDTFSFYMDLKALRSDDTATYFCARQRSDYWDFDVWGSGTQVTVSSASTKGPSVFPLAPSSKSTSGGTAALGCLVKDYFPEPVTVSWNSGALTSGVHTFPAVLQSSGLYSLSSVVTVPSSSLGTQTYICNVNHKPSNTKVDKKVEPKSCDKTHTCPPCPAPELLAGPDVFLFPPKPKDTLMISRTPEVTCVVVDVSHEDPEVKFNWYVDGVEVHNAKTKPREEQYNSTYRVVSVLTVLHQDWLNGKEYKCKVSNKALPLPEEKTISKAKGQPREPQVYTLPPSREEMTKNQVSLTCLVKGFYPSDIAVEWESNGQPENNYKTTPPVLDSDGSFFLYSKLTVDKSRWQQGNVFSCSVLHEALHSHYTQKSLSLSPGK
light: DIQMTQSPSSLSASVGDTVTITCQANGYLNWYQQRRGKAPKLLIYDGSKLERGVPSRFSGRRWGQEYNLTINNLQPEDIATYFCQVYEFVVPGTRLDLKRTVAAPSVFIFPPSDEQLKSGTASVVCLLNNFYPREAKVQWKVDNALQSGNSQESVTEQDSKDSTYSLSSTLTLSKADYEKHKVYACEVTHQGLSSPVTKSFNRGEC
B3: 1.32.1-1 (antibody, human IgG1, kappa)
heavy: QVQLVQSGAEVTKPGASVRVSCEASGYNIRDYFIHWWRQAPGQGLQWVGWINPKTGQPNNPRQFQGRVSLTRHASWDFDTFSFYMDLKALRSDDTAVYFCARQRTDYWDFDVWGSGTQVTVSSASTKGPSVFPLAPSSKSTSGGTAALGCLVKDYFPEPVTVSWNSGALTSGVHTFPAVLQSSGLYSLSSVVTVPSSSLGTQTYICNVNHKPSNTKVDKKVEPKSCDKTHTCPPCPAPELLAGPDVFLFPPKPKDTLMISRTPEVTCVVVDVSHEDPEVKFNWYVDGVEVHNAKTKPREEQYNSTYRVVSVLTVLHQDWLNGKEYKCKVSNKALPLPEEKTISKAKGQPREPQVYTLPPSREEMTKNQVSLTCLVKGFYPSDIAVEWESNGQPENNYKTTPPVLDSDGSFFLYSKLTVDKSRWQQGNVFSCSVLHEALHSHYTQKSLSLSPGK
light: DIQMTQSPSSLSASVGDTVTITCQANGYLNWYQQRRGKAPKLLIYDGSKLERGVPSRFSGRRWGQEYNLTINNLQPEDIATYFCQVYEFVVPGTRLDLKRTVAAPSVFIFPPSDEQLKSGTASVVCLLNNFYPREAKVQWKVDNALQSGNSQESVTEQDSKDSTYSLSSTLTLSKADYEKHKVYACEVTHQGLSSPVTKSFNRGEC

Columns and labels:
HIV gp120 CAAN = HIV gp120 CAAN (HIV); experiment: single-point ELISA; note: test concentration or dose not given here
HIV gp120 Bal = HIV gp120 Bal (HIV); experiment: single-point ELISA; note: test concentration or dose not given here

Row | Binder | ELISA (A450) (HIV gp120 CAAN) | ELISA (A450) (HIV gp120 Bal)
1 | B1 | 0.92 | 0.82
2 | B2 | 0.98 | 0.88
3 | B3 | 0.83 | 0.93
